Data from the RNAGym collection of RNA variant scans (doi:10.1073/pnas.2313332121).
This sample holds only a part of the variants without activity.

B1: TPR 5TU (parent)
chain: GGAUCUUCUCGAUCUAACAAAAAAGACAAAUCUGCCACAAAGCUUGAGAGCAUCUUCGGAUGCAGAGGCGGCAGCCUUCGGUGGCGCGAUAGCGCCAACGUUCUCAACUAUGACACGCAAAACGCGUGCUCCGUUGAAUGGAGUUUAUCAUG

Variants of: B1
Assay: polymerase ribozyme fitness, log enrichment relative to wild type (log ratio); higher = more active; in vitro selection for triplet polymerase activity
Summary of the method: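 To select mutant libraries of each subunit of a heterodimeric triplet polymerase ribozyme, built by PCR and transcribed, each was annealed with a biotinylated primer, partner subunit and triplets, then incubated frozen at −7 °C. Extended constructs were gel-excised, captured on streptavidin beads and amplified by RT-PCR, in one round carried out in triplicate. Illumina sequencing of input and output libraries kept genotypes with ≥10 input reads and ≥1 read per output. Fitness is the base-2 logarithm of genotype enrichment relative to wild-type enrichment, from inverse-variance-weighted replicate averages.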

Variant | polymerase ribozyme fitness (log ratio)
C54U C69A U144C | -3.89
U145G U151G | -4.07
C57U G59A G83C G84U C85A U101G G126A A142C | ≤ -4.2
C96A C116G G136C | -3.22
C54A G70U G94A | -4.02
C10G U77A C93U U144G | ≤ -4.2
C75U G94C A142C | -2.58
A17G C96A A97G U101C U148C | -3.67
A60G U77G C87U C132G | ≤ -4.2
A12U G46C C69U | -3.08
U53G C54A C95U U104C A106U C118U C149G | ≤ -4.2
U13A U33A A52U A89G | ≤ -4.2
G94U G128U U139A G141A | ≤ -4.2
G74A C85G | -3.83
G68U G128U | ≤ -4.2
C32U C69A G84A C96G U111A | ≤ -4.2
C69A G81U G84U | ≤ -4.2
C51U U134A | -2.32
A12G C14G G92C | -2.86
A20C C32A A52G A91U G94A C99U A147U G152U | -3.97
A3U U61G C95U | -1.39

Variant | polymerase ribozyme fitness (log ratio)
G59A G83U | -1.06
C93A A106G | -1.9
U7C A12C C87A C105A C116G A138U G152U | ≤ -4.2
C18A A28G A30C G46A G74C | ≤ -4.2
U53A C118G | -2.5
C32A C35U C57G G62A U90C C103G C116U C149U | ≤ -4.2
A39C G84A U144A | -2.69
U61A U144C | -2.19
U53A G58C A73U C95A | ≤ -4.2
G59A G94C | -0.903
C14G A21U G59C G94A U101G A113C | ≤ -4.2
A26C A29C G65A C87G A97G A142G | ≤ -4.2
A21C A40C C99G | -0.927
U4G U13A C57A A106C G136A | -1.91
A19C C43U C51G G71A C87G C105U C108U G141C | ≤ -4.2
U33C A40C G68U C95A U102C C132G | -3.48
G65C A89C G92A U102G C116U A137G | ≤ -4.2
A26U C96U C108G U127A | ≤ -4.2
A49C C54U G86C G88C A138U | ≤ -4.2
A73U G83A | -1.97
G42C C85U | -3.97

Variant | polymerase ribozyme fitness (log ratio)
U31G A40G U61A C87U G112U G141C | ≤ -4.2
C32A C96U | -4.11
G58C A60G | 0.746
A60C A73G C93U | ≤ -4.2
A28C G80C C87G | ≤ -4.2
A19C A22U G42U C75G C76A G94A A110U G133U G143U U146G | ≤ -4.2
A19C C51U A142C | -0.768
A20C A49G | -0.512
C14U A73U U78G C87G A122U C123U | ≤ -4.2
A17U G124U | -0.693
U53G A97C | -1.81
G81C | -0.471
C5G A17G | -0.0409
A29C C63U G65U U144G | ≤ -4.2
C76A U104C | -3.57
U55G G83C | -0.921
A29C U33G A40U G80U G94U U102C G143A U151A | -3.89
G11A A17C A39C | -3.25
G83C U109A A115C G140C | ≤ -4.2
U55G C85U | -0.188
G86U G100U | ≤ -4.2

Variant | polymerase ribozyme fitness (log ratio)
U4G A40C A137G | -1.84
C38G G141A | -0.0444
C57U U130G C131U | -4.19
A52G C93U G94C A97C | -3.73
U31A G84A G100A C108G C123G | ≤ -4.2
A12U A21U A39C G92A U109G A137G | ≤ -4.2
C54U U146A | -0.881
A16C A20C A41C C85G C116U | -3.81
A23G A28G A39U A40U U44A U61A U78G C85U U151G | ≤ -4.2
A40U A41C C96U | -0.566
A41C A60U A91G U134C | -4.11
A41C G152U | -2.69
U7G A23G U53A C99G C116A C125G A137C | ≤ -4.2
G42U U45G U53C G88U A137C | ≤ -4.2
C85A A147G | -0.743
A17C U61G C85U G126A G140U U151A G152C | ≤ -4.2
G46U C54U A73U | -3.31
A26C U56A A60U U82G | -2.45
U33A U44A G46U G59A C93G C103U U104A U135A C149G | ≤ -4.2
U55A G71A U77C C95U A113C C149G | ≤ -4.2
